Experimental data reported in publication PMC4840375.

Key:
[1] = molecular target: TraH expressed in E. faecalis JH2-2 (pEU327-RBS-traH) (Enterococcus faecalis (plasmid pIP501)); assay: cross-linking; in vivo, E. faecalis JH2-2 (pEU327-RBS-traH) cells in early log phase, formaldehyde 0.5–2% in PBS for 10 minutes; SDS-PAGE and western blot
[2] = molecular target: TraH, full length, purified and reconstituted in DDM micelles (Enterococcus faecalis (plasmid pIP501)); assay: cross-linking; in vitro, 8 μg purified protein, 300 mM NaCl, 100 mM bicine, 1 mM DTT, glutaraldehyde 0–1% (v/v), 15 min at RT; full-length TraH kept in DDM micelles; SDS-PAGE and western blot
[3] = molecular target: TraH, full length, purified and reconstituted in DDM micelles (Enterococcus faecalis (plasmid pIP501)); assay: native gel or EMSA; semi-native PAGE: sample buffer without SDS and reducing agent, 4 °C, 12.5% native gels, running buffer with 0.1% SDS; full-length TraH in DDM micelles; western blot
[4] = molecular target: TraH, full length, purified and reconstituted in DDM micelles (Enterococcus faecalis (plasmid pIP501)); assay: SEC; analytical SEC of full length TraH reconstituted in DDM micelles; 70 kDa taken for the micelle; apparent molecular weight

Work on “TraH expressed in E. faecalis JH2-2 (pEU327-RBS-traH) (natural protein)” yielded a stoichiometry N [1] of 2.
With “TraH, full length, purified and reconstituted in DDM micelles (natural protein)” the stoichiometry N [2] was 2, the stoichiometry N [3] was 2 and the stoichiometry N [4] was 4.
